Laboratory results as given in US9926369B2, “Methods for treating hepatocellular cancer by administering an anti-Ang-2 antibody” (Regeneron Pharmaceuticals, Inc., priority 2009, dated 2018).

How the values were obtained:
[1] = target: biotin-hBA2 binding to hTie-2 (Homo sapiens, UniProt O15123); assay: ELISA blocking of biotinylated hBA2 binding to hTie-2-His; format: biochemical; settings: 20 pM biotinylated hBA2; average of two separate experiments; read-out: Biotin - hBA2 Average IC50
Description: For this experiment, human Tie-2 conjugated to a histidine tag (hTie-2-His; SEQ ID NO:526) was used in a similar fashion to the hTie-2-mFc described above. Antibody concentrations from 5 nM were serially diluted three-fold. […] An average IC50 value for each antibody was calculated based on two separate experiments.

[2] = tested on: Tie-2 phosphorylation (Ang-2-mediated) in HUVECs; assay: Inhibition of Ang-2-mediated Tie-2 phosphorylation in FOXO1-adenovirus infected HUVECs; format: cell-based, human; settings: antibody 0.5 μg/ml
Description: Further, the inventors have shown that infection of HUVECs with an adenovirus encoding FOXO1 results in expression and secretion of Ang-2, followed by activation of Tie-2 phosphorylation (Daly et al. 2006 PNAS 103:15491).
Anti-Ang-2 antibodies were tested for their ability to inhibit Tie-2 phosphorylation. Briefly, 7×10^5 HUVECs (Vec Technologies, Rensselaer, N.Y.) were plated in 6 cm cell culture dishes in 3.5 ml of MCDB131 Complete medium (Vec Technologies, Rensselaer, N.Y.). The following day, the cells were washed with Opti-MEM (Invitrogen Corp., Carlsbad, Calif.) and fed with 2 ml of Opti-MEM. […] Cells were then washed with MCDB131 and fed with 2 ml of MCDB131 containing anti-Ang-2 antibodies at a concentration of 0.5 μg/ml. At twenty hours post infection, cells were lysed and subjected to Tie-2 immunoprecipitation as described by Daly et al., Proc. Natl. Acad. Sci. USA 103:15491-15496 (2006). Immunoglobulin was collected on protein A/G beads (Santa Cruz Biotechnology, Santa Cruz, Calif.) for one hour. Beads were washed with cold lysis buffer and resuspended in SDS sample buffer for analysis by western blot with antibodies specific for phosphotyrosine (Millipore, Billerica, Mass.) or Tie-2. Signals were detected using HRP-conjugated secondary antibodies and ECL reagents (GE Healthcare, Piscataway, N.J.). X-Ray films were scanned and the phospho-Tie-2 and Tie-2 signals were quantified using ImageJ software. The phospho-Tie-2/Tie-2 ratios were used to determine the % inhibition for each anti-Ang-2 antibody (i.e. Percent inhibition=Reduction in phospho-Tie-2/Tie-2 as compared to control).

Sequence of biotin-hBA2 binding to hTie-2 (O15123 with tags, fused parts or gaps): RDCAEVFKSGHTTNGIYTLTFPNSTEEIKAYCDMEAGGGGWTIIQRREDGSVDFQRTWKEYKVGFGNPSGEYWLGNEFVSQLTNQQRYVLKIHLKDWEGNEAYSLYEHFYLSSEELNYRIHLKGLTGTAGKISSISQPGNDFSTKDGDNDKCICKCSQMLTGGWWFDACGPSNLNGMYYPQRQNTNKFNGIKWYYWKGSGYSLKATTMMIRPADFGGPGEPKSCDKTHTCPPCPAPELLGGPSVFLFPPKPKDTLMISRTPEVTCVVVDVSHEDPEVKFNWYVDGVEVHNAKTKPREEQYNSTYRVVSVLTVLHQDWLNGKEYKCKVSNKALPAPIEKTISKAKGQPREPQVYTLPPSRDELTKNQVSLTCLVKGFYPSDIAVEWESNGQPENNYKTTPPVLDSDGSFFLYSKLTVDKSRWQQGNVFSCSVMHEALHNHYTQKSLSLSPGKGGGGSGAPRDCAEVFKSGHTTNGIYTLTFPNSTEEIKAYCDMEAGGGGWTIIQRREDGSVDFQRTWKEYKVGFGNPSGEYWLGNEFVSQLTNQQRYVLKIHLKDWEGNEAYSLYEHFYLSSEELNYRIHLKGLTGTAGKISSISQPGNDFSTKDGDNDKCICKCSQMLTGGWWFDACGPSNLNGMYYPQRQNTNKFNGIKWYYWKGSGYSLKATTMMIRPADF

IC50 [1]: 0.0141 nM
B1: H1M728N: anti-Ang-2 antibody, HCVR/LCVR SEQ ID NOs 290/298 (antibody, V domains shown)
VH: EVQLVESGGDLVQPGGSLRLSCTASGFTFSKYWMTWVRQAPGRGLEWVANIKEDGNEKYFLDSVKGRFTISRDNAKDLLFLQMNSLRGEDTAVYYCVRDRGIEVAGPFDYWGQGTLVTVSS
VL: DIQMTQSPSTLSASVGDRVTVTCRASQTIINWLAWYQQKPGKAPKLLISKASSLESGVPSRFSGSGSGTEFTLTISSLQPDDFATYYCQQYNRYWTFGQGTMVEIK
Inhibition of Tie-2 phosphorylation [2]: ++ (50-75%)
